T1: human soluble IL-6R (human, UniProt P08887 20-357, limits assumed)
T1 construct: Soluble form; also called sIL6R; Human IL-6R
T1 sequence (looked up): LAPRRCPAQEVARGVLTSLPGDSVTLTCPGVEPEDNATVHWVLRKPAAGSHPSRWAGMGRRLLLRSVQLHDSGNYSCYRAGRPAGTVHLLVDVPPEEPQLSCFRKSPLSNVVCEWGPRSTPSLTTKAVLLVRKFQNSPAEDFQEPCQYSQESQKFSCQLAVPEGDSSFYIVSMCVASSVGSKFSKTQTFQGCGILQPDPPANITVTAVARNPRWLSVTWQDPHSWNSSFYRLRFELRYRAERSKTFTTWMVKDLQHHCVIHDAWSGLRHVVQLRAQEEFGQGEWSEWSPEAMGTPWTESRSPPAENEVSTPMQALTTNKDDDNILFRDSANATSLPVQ

B1: ABD094(H/L)-H54//IC17 (bispecific antibody, human IgG1, kappa)
heavy 1: LAEAKEAANAELDSYGVSDFYKRLIDKAKTVEGVEALKDAILAALPQVQLQESGPGLVKPSETLSLTCAVSGYSISDDQAWSWVRQPPGEGLEWIGYISYSGITNYNPSLKGRVTISRDTSKNQFSLKLSSVTAADTAAYYCARSLARTTAMDYWGEGTLVTVSSASTKGPSVFPLAPSSKSTSGGTAALGCLVEDYFPEPVTVSWNSGALTSGVHTFPAVLQSSGLYSLSSVVTVPSSSLGTQTYICNVNHKPSNTKVDERVEPKSCDKTHTCPPCPAPELRRGPSVFLFPPKPKDTLMISRTPEVTCVVVDVSHEDPEVKFNWYVDGVEVHNAKTKPREEQYNSTYRVVSVLTVLHQDWLNGKEYKCKVSNKALPAPIEKTISKAKGQPREPQVCTLPPSREEMTKNQVSLSCAVKGFYPSDIAVEWESNGQPENNYKTTPPVLDSDGSFFLVSKLTVDKSRWQQGNVFSCSVMHEALHNHYTQKSLSLSP
light 1: LAEAKEAANAELDSYGVSDFYKRLIDKAKTVEGVEALKDAILAALPDIQMTQSPSSLSASVGDSVTITCQASQDISSYLNWYQQKPGKAPELLIYYGSELHSGVPSRFSGSGSGTDFTFTISSLEAEDAATYYCQQGNSLPYTFGQGTKVEIERTVAAPSVFIFPPSDRKLKSGTASVVCLLNNFYPREAKVQWKVDNALQSGNSQESVTEQDSKDSTYSLSSTLTLSKADYEKHKVYACEVTHQGLSSPVTKSFNRGEC
heavy 2: not shown
light 2: QVQLQQSGPQLVRPGASVKISCKASGYSFTSYWMHWVNQRPGQGLEWIGMIDPSYSETRLNQKFKDKATLTVDKSSSTAYMQLSSPTSEDSAVYYCALYGNYFDYWGQGTTLTVSSASVAAPSVFIFPPSDEQLKSGTASVVCLLNNFYPREAKVQWKVDNALQSGNSQESVTEQDSKDSTYSLSSTLTLSKADYEKHKVYACEVTHQGLSSPVTKSFNRGEC
notes: also called anti-IL6R albumin switch molecule
B2: ABP(H/L).N13-H54//IC17 (bispecific antibody, human IgG1, kappa)
heavy 1: QRLMEDICLPRWGCLWEDDFGGGSQVQLQESGPGLVKPSETLSLTCAVSGYSISDDQAWSWVRQPPGEGLEWIGYISYSGITNYNPSLKGRVTISRDTSKNQFSLKLSSVTAADTAAYYCARSLARTTAMDYWGEGTLVTVSSASTKGPSVFPLAPSSKSTSGGTAALGCLVEDYFPEPVTVSWNSGALTSGVHTFPAVLQSSGLYSLSSVVTVPSSSLGTQTYICNVNHKPSNTKVDERVEPKSCDKTHTCPPCPAPELRRGPSVFLFPPKPKDTLMISRTPEVTCVVVDVSHEDPEVKFNWYVDGVEVHNAKTKPREEQYNSTYRVVSVLTVLHQDWLNGKEYKCKVSNKALPAPIEKTISKAKGQPREPQVCTLPPSREEMTKNQVSLSCAVKGFYPSDIAVEWESNGQPENNYKTTPPVLDSDGSFFLVSKLTVDKSRWQQGNVFSCSVMHEALHNHYTQKSLSLSP
light 1: QRLMEDICLPRWGCLWEDDFGGGSDIQMTQSPSSLSASVGDSVTITCQASQDISSYLNWYQQKPGKAPELLIYYGSELHSGVPSRFSGSGSGTDFTFTISSLEAEDAATYYCQQGNSLPYTFGQGTKVEIERTVAAPSVFIFPPSDRKLKSGTASVVCLLNNFYPREAKVQWKVDNALQSGNSQESVTEQDSKDSTYSLSSTLTLSKADYEKHKVYACEVTHQGLSSPVTKSFNRGEC
heavy 2: not shown
light 2: B1 light 2
notes: also called ABP(H/L)-H54//IC17

How the values were obtained:
rat albumin = target: T2, rat albumin (rat, UniProt P02770 25-608); assay: inferred from reduced antigen complex in rat plasma (Gyrolab xP)
T2 construct: also called albumin in SD rat plasma

human albumin = target: T3, human albumin (human, UniProt P02768 25-609); assay: inferred from reduced antigen complex in human plasma (Gyrolab xP)
T3 construct: also called albumin in human plasma

human soluble IL-6R [1] = target: T1, human soluble IL-6R; assay: SPR (Biacore T200), antibody captured on Protein G, human IL-6R as analyte, 37 degrees C, no albumin
Description: Binding activities of the produced albumin switch molecules against human IL-6R were evaluated using Biacore T200 (Cytiva). As the running buffer, 50 mM Na Phosphate (pH 7.4), 150 mM NaCl, 0.05% Tween20 was used, and the evaluation was performed at 37 degrees C. First, Protein G (CALBIOCHEM) was used as a ligand-capturing molecule. Protein G (CALBIOCHEM) was solid-phased on a Series S Sensor Chip CM4 (Cytiva) using an Amine Coupling Kit (Cytiva). Antibody solution prepared using the running buffer was allowed to interact with this CM4 sensor chip to capture approximately 200 RU of the antibody. Human IL-6R used in the present measurement was prepared by an approach described in WO2018097307 (Example 3-2). Human IL-6R was diluted to 0, 100, and 400 nM with the running buffer, and allowed to bind to the captured antibody. The chip was regenerated using 3 M MgCl₂, and measurements were performed by repeatedly capturing the antibodies. Dissociation constant (KD) of each antibody for human IL-6R was calculated using Biacore T200 Evaluation Software 2.0. Specifically, the association rate constant ka (L/mol/s) and the dissociation rate constant kd (1/s) were calculated by global fitting of the sensorgrams obtained by measurement with the 1:1 Langmuir binding model, and the dissociation constant KD (mol/L) was calculated from these values.

mouse albumin = target: T4, mouse albumin (mouse, UniProt P07724 25-608); assay: SPR (Biacore T200), antibody captured by anti-human Fc antibody, mouse albumin as analyte, 25 degrees C
T4 construct: also called recombinant mouse Albumin; mouse serum albumin
Description: Binding activities of the produced antibodies against mouse albumin were evaluated using Biacore T200 (Cytiva).
As the running buffer, 50 mM Na Phosphate (pH 7.4), 150 mM NaCl, 0.05% Tween20 was used, and the evaluation was performed at 25 degrees C. First, anti-human Fc antibody (Cytiva) was used as a ligand-capturing molecule. Anti-human Fc antibody (Cytiva) was solid-phased on a Series S Sensor Chip CM4 (Cytiva) using an Amine Coupling Kit (Cytiva). Antibody solution prepared using the running buffer was allowed to interact with this CM4 sensor chip to capture approximately 120 RU of the antibody. Mouse albumin (Bioscience) was diluted to 0 and 300 nM with the running buffer and allowed to bind to the captured antibody. The chip was regenerated using 3 M MgCl₂, and measurements were performed by repeatedly capturing the antibodies. Dissociation constant (KD) of each antibody for mouse albumin was calculated using Biacore T200 Evaluation Software 2.0. Specifically, the association rate constant ka (L/mol/s) and the dissociation rate constant kd (1/s) were calculated by global fitting of the sensorgrams obtained by measurement with the 1:1 Langmuir binding model, and the dissociation constant KD (mol/L) was calculated from these values.

human soluble IL-6R [2] = target: T1, human soluble IL-6R; assay: Gyrolab xP immunoassay of antibody-antigen complex in C57BL/6J mouse plasma (albumin present), 1 nM antibody, 4 nM antigen
human soluble IL-6R [3] = target: T1, human soluble IL-6R; assay: in vivo KD in mouse plasma (albumin present), from total antibody, free and bound sIL6R 5 min after sIL6R; antibody 1 mg/kg IV
Description: (§1) Next, free sIL6R in plasma was measured. The concentration of free sIL6R in plasma was measured on a fully automated ELISA system (Gyrolab xP workstation). First, sIL6R prepared at 23.4, 46.9, 93.8, 188, 375, 750, and 1500 ng/mL using a Protein-Free (PBS) Blocking Buffer (Thermo Scientific) was used as solutions for preparing the calibration curve. Mouse plasma samples were used in the measurements without diluting them. A solution of biotin-labeled H54 diluted to 10 micro g/mL using a Protein-Free (PBS) Blocking Buffer was used as a solution of the sIL6R-capturing molecule. Alexa Fluor (registered trademark) 647-labeled anti-human IL-6R antibody (R&D Systems) diluted to 1 micro g/mL using a Protein-Free (PBS) Blocking Buffer was used as a solution of the human IL-6R-detection molecule. PBS (pH 7.4) containing 0.05% TWEEN was used as a washing solution. The calibration curve solutions, mouse plasma samples, sIL6R-capturing molecule solution, sIL6R-detection molecule solution, and the washing solution were placed onto a PCR plate, and then the PCR plate was sealed with a plate sealer. After the PCR plate and the Bioaffy 200 disc were placed in the Gyrolab xP workstation, measurements were taken. Using the data processed by the Gyros Evaluater 3.6.2.30 software and the calibration curve concentrations, the concentration of free sIL6R in plasma was calculated by logistic regression using the XLfit 5.5.0.5 software.
Additionally, bound sIL6R in plasma was measured. The concentration of bound sIL6R in plasma was measured on an electrospray ionization mass spectrometer connected to a high-performance liquid chromatography (LC/ESI-MS/MS). First, H54//IC17 and sIL6R were mixed, and solutions for preparing the calibration curve of bound sIL6R were prepared at theoretical plasma concentrations of 0.0468, 0.467, 4.60, and 20.1 nmol/mL. The solutions for preparing the calibration curve and 1 or 2 micro L of a plasma sample were added to 75 or 150 micro g of magnetic beads (Magnosphere MS300/Carboxyl, JSR) to which anti-delta GK antibodies were solid-phased, and this was shaken at 25 degrees C. for one hour.

human soluble IL-6R [4] = target: T1, human soluble IL-6R; assay: in vivo KD in mouse plasma (albumin present), from total antibody, free and bound sIL6R 5 min after sIL6R; antibody 0.2 mg/kg IV
Description: as §1
Additionally, bound sIL6R in plasma was measured. The concentration of bound sIL6R in plasma was measured on an electrospray ionization mass spectrometer connected to a high-performance liquid chromatography (LC/ESI-MS/MS). First, H54//IC17 and sIL6R were mixed, and solutions for preparing the calibration curve of bound sIL6R were prepared at theoretical plasma concentrations of 0.0468, 0.467, 4.60, and 20.1 nmol/mL. […]

T2 sequence (P02770 25-608 limits assumed): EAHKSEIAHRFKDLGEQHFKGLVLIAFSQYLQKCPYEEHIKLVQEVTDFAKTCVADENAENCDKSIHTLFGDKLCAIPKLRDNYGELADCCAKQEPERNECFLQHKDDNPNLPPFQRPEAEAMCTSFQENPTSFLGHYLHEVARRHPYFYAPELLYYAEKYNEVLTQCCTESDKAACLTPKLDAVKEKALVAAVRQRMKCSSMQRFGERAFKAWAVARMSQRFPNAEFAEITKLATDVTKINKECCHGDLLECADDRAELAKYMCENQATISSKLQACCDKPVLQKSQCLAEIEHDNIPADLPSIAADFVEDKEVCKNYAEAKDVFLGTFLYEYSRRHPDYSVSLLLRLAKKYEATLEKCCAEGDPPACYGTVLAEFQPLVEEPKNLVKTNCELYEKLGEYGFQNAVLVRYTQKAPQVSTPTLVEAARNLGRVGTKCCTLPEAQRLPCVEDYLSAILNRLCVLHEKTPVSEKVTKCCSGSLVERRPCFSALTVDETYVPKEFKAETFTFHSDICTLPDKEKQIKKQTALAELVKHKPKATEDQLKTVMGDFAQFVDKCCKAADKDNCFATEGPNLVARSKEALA
T3 sequence (P02768 25-609 limits assumed): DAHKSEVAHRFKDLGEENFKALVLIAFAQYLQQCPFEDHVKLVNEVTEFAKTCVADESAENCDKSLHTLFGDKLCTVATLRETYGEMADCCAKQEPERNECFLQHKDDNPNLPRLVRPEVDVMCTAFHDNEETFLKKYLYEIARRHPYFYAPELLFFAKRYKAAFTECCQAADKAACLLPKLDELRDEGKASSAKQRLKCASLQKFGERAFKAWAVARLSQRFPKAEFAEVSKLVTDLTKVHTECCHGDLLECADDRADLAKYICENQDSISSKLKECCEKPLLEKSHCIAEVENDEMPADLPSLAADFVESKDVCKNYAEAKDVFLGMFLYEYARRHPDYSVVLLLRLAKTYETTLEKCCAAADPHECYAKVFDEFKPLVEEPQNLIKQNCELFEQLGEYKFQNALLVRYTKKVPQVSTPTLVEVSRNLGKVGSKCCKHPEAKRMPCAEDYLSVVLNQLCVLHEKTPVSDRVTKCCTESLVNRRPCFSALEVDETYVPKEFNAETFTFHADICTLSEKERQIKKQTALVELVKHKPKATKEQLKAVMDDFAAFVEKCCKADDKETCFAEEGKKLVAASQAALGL

Binder | binding result (rat albumin) | binding result (human albumin) | Kd (human soluble IL-6R [1]) [nM] | koff (human soluble IL-6R [1]) [s⁻¹] | kon (human soluble IL-6R [1]) [M⁻¹ s⁻¹] | Kd (mouse albumin) [nM] | koff (mouse albumin) [s⁻¹] | kon (mouse albumin) [M⁻¹ s⁻¹] | decrease in the signal derived from the complex, compared to H54//IC17 (human soluble IL-6R [2]) [%] | Kd (human soluble IL-6R [3]) [nM] | Kd (human soluble IL-6R [4]) [nM]
B1 | binds | binds | 3.7 | 0.000779 | 210000 | 19.4 | 0.00112 | 57600 | 95 | 306 | 141
B2 | binds | binds | 2.02 | 0.000951 | 471000 | 10.2 | 0.000443 | 43500 | – | 13.4 | 2

From patent US20260209363A1 (Chugai, published 2026)
